Measurements taken from patent publication US20150064217A1, “PLURIPOTENT GERM LAYER ORIGIN ANTIGEN PRESENTING CANCER VACCINE” (CALIFORNIA STEM CELL, INC., priority 2012, published 2015).

What was measured:
[1] = tested on: melanoma cell lines; assay: Apoptosis and autophagy induction in melanoma cell lines (7-AAD, annexin-V, LC3 II); type: cell-based
Protocol: (§1) The methodology of the study was as follows. Autologous and model melanoma tumor cell lines were incubated with 1000 IU/mL of IFN-gamma for 72 hours prior to assaying for autophagy, apoptosis and MHC class II expression. Autophagy was detected by immunobloting with antibodies against LC3 II and by flow cytometry with Enzo's CytoID® Autophagy Detection Kit. Apoptosis and MHC class II induction were assayed by flow cytometry using 7-AAD and annexin-V staining and antibodies against MHC class II, respectively. 7-AAD intercalates in dsDNA. 7-AAD is excluded by viable cells, and thus it can be used to detect dead cells.
Analysis of tumor cell death and changes in major histocompatibility class II expression in response to IFN-gamma were conducted by use of antibodies directed against MHC class II, annexin-V and 7-amino-actinomycin D (7-AAD) and acquired on a Beckton-Dickenson FACS Calibur® flow cytometer. […]
(§2) What was investigated was the induction of autophagy, apoptosis and MHC class II molecules after IFN-gamma treatment of melanoma tumor cells in vitro. […] Autophagy was detected by immunobloting with antibodies against LC3 II and by flow cytometry with Enzo's CytoID Autophagy Detection Kit. […]

[2] = tested on: SK-5-Mel cells; assay: MHC class II (HLA-DR) expression by flow cytometry with autophagy inhibitor; type: cell-based; conditions: autophagy inhibitor together with interferon-gamma
Protocol: The cells were then harvested and assayed for apoptosis and MHC class II (HLA-DR) expression by flow cytometry.
as §1
Analysis of tumor cell death and changes in major histocompatibility class II expression in response to IFN-gamma were conducted by use of antibodies directed against MHC class II, annexin-V and 7-amino-actinomycin D (7-AAD) and acquired on a Beckton-Dickenson FACS Calibur® flow cytometer.
as §2

[3] = tested on: autologous melanoma tumor cells; assay: Immunoblotting of melanoma cell lysates; type: cell-based, human; conditions: cells incubated with IFN-gamma
Protocol: Cytoplasmic cell lysates were prepared with Mammalian Protein Extraction Reagent (Thermo Scientific, Rockford, Ill.) plus protease inhibitor cocktail (Roche, Indianapolis, Ind.) at 10,000 cells/uL on ice. Approximately 25 uLs/lane of cell lysates were separated on 12.5% tris-glycine gels, transferred to PVDF membrane and probed with antibodies against the following: calreticulin (MBL, Woburn, Mass.), Hsp-60, Hsp-70, Hsp-90 (R&D Systems, Minneapolis, Minn.), HMBG-1 (Cell Signaling, Danvers, Mass.), ICAM-1 (Santa Cruz Biotech, Santa Cruz, Calif.), Mel-4, Mart-1 (Signet, Emeryville, Calif.), tyrosinase (Upstate, Lake Placid, N.Y.) and GADPH (Calbiochem, Darmstadt, Germany).

[4] = tested on: Colon tumor cell line; assay: Response to interferon-gamma by flow cytometry, colon tumor cell line; type: cell-based; conditions: Sample A, interferon-gamma 72 hours
Source text: (§3) Pure tumor cells were generated from colon, ovarian, glioblastoma, and renal cell carcinoma according to Dillman and Comforth, et al. (Cornforth, et al. (2011) Cancer Immunol. Immunother. 60:123-131; Dillman, et al. (1993) J. Immunother. Emphasis Tumor Immunol. 14:65-69; Dillman, et al. (2000) Cancer Biother. Radiopharm. 15:161-168; Dillman, et al. (1999) 14:443-449; Dillman et al. (2000) 15:161-168).
(§4) Briefly, tumor biopsies from surgical samples were enzymatically processed into single cell suspensions and purified cell lines generated by differential attachment and serum starvation. The cell lines generated were cryopreserved in liquid nitrogen, thawed and treated with or without interferon-gamma in 5% fetal bovine serum/RPMI media for 72 hours. After exposure to interferon-gamma, the non-adherent cells were analyzed separately from the adherent cells by flow-cytometry. The markers investigated were MHC class I, MHC class II, Annexin V (apoptosis), and 7-ADD (viability).

[5] = tested on: melanoma cell lines; assay: Immunohistochemistry of tumor associated antigens in melanoma cell lines with or without IFN-gamma; type: cell-based, human; conditions: share of melanoma cell lines; 1000 IU/mL IFN-gamma, 72 hours; N = 27 samples
Protocol: Expression of a panel antigens by melanoma lines were determined using immunocytochemical procedure. Cells were cultured in 8-chamber culture slides (Thermo Fisher, Rochester, N.Y.) in the presence or absence of 1000 IU/mL IFN-gamma. After 72 hours, the cells were washed 3 times with 1× Phosphate Buffered Saline (PBS) and fixed in cold acetone. After blocking endogenous peroxidase, cells were incubated with appropriate primary antibodies against the antigens listed. Immunohistochemistry was performed using biotinylated anitmouse or rabbit immunoglobulins, Super Sensitive enzyme-conjugated streptavidin labeling and horse radish peroxidase chromogen, and substrate kits (Biogenex, San Ramon, Calif.). The reactivity of the following anti-human polyclonal or monoclonal antibodies was investigated with isotype matched control antibody: S-100 and HMB-45 (Biogenex, San Ramon, Calif.), Mel-2, Mel-5, Mart-1 (Signet, Dedham, Mass.), Tyrosinase and Mage-1 (Thermo Scientific, Fremont, Calif.), Melan-A, HLA-class I and HLA-class II (Dako, Denmark).

[6] = tested on: Renal Cell Carcinoma tumor cell line; assay: Response to interferon-gamma by flow cytometry, renal cell carcinoma cell line; type: cell-based; conditions: Sample D, interferon-gamma 72 hours
Source text: as §3, §4

[7] = tested on: Ovarian tumor cell line; assay: Response to interferon-gamma by flow cytometry, ovarian tumor cell line; type: cell-based; conditions: Sample B, interferon-gamma 72 hours
Source text: as §3, §4

[8] = tested on: Glioblastoma tumor cell line; assay: Response to interferon-gamma by flow cytometry, glioblastoma cell line; type: cell-based; conditions: Sample C, interferon-gamma 72 hours
Source text: as §3, §4

[9] = tested on: autologous melanoma cells; assay: Flow cytometry for MHC class I and class II on autologous melanoma cells; type: cell-based, human; conditions: in response to IFN-gamma treatment
Protocol: FIGS. 2A-D show characterization of IFN-gamma treated autologous tumor cells used for loading dendritic cells. Autologous melanoma tumor cells were treated with or without 1000 IU/mL IFN-gamma for 72 hours in 15% FBS/ECS in RPMI, harvested and irradiated with 100 Gy and cryopreserved. Cells were then thawed in AIMV and a sample taken for flow cytometry and for preparation of cell lysates for immunoblotting prior to antigen loading of DCs. An example of four separate autologous melanoma cell lines is shown (FIG. 2A, FIG. 2B and FIG. 2C). Induction major histocompatibility complexes by IFN-gamma treatment of autologous tumor cells (FIG. 2D). Tumor cells were harvested after being treated with or without 1000 IU/mL IFN-gamma for 72 hours and then assayed for MHC class I and class II. Control isotype antibodies were used to identify positive populations. Dark data points indicate median mean fluorescent plus/minus 95% confidence interval. N=65. After irradiation, melanoma cells are checked by assays to ensure that there is not any mitosis. […]

Molecule: carbobenzoxy-valyl-alanyl-aspartyl-[O-methyl]-fluoromethylketone [Z-VAD, reference compound]
- apoptosis in IFN-gamma treated cells ([1]; pan caspase inhibitor with IFN-gamma): prevents apoptosis

Molecule: Cn1cnc(N)c2ncnc1-2 [3-MA, 3-methyladenine]
- MHC class II expression despite treatment with interferon-gamma [2]: loss of MHC class II expression

B1: interferon-gamma (protein, UniProt P01579 24-161, looked up)
Interferon gamma: QDPYVKEAENLKKYFNAGHSDVADNGTLFLGILKNWKEESDRKIMQSQIVSFYFKLFKNFKDDQSIQKSVETIKEDMNVKFFNSNKKKRDDFEKLTNYSVTDLNVQRKAIHELIQVMAELSPAAKTGKRKRSQMLFRG
notes: type II interferon (InterMune, Brisbane, Calif.) used to treat tumor cells in vitro
- ICAM-1, immunoblot [3]: significantly up-regulated
- calreticulin and high-mobility group box-1 protein (HMGB-1), immunoblot [3]: up-regulated in some cases
- common melanoma antigens (mel-4, Mart-1 and tyrosinase), immunoblot [3]: down regulated
- Induction of MHC class I [4]: Yes
- Induction of MHC class II [4]: Yes
- Induction of apoptosis [4]: No
- Induction of autophagy [4]: Yes
- HMB-45 expression: Change after IFN-gamma treatment, Down [5]: 45/5
- HMB-45 expression: Change after IFN-gamma treatment, None [5]: 54.5%
- MAGE-1 expression: Change after IFN-gamma treatment, Down [5]: 61.5%
- MAGE-1 expression: Change after IFN-gamma treatment, None [5]: 38.5%
- MART-1 expression: Change after IFN-gamma treatment, Down [5]: 85.2%
- MART-1 expression: Change after IFN-gamma treatment, None [5]: 14.8%
- Mel-2 expression: Change after IFN-gamma treatment, Down [5]: 53.8%
- Mel-2 expression: Change after IFN-gamma treatment, None [5]: 46.2%
- Mel-5 expression: Change after IFN-gamma treatment, Down [5]: 27.3%
- Mel-5 expression: Change after IFN-gamma treatment, None [5]: 72.7%
- Melan-A expression: Change after IFN-gamma treatment, Down [5]: 70.8%
- Melan-A expression: Change after IFN-gamma treatment, None [5]: 29.2%
- S-100 expression: Change after IFN-gamma treatment, Down [5]: 57.1%
- S-100 expression: Change after IFN-gamma treatment, None [5]: 42.9%
- Tyrosinase expression: Change after IFN-gamma treatment, Down [5]: 60.0%
- Tyrosinase expression: Change after IFN-gamma treatment, None [5]: 40.0%
- Induction of MHC class I [6]: No
- Induction of MHC class II [6]: Yes
- Induction of apoptosis [6]: Yes
- Induction of autophagy [6]: Yes
- Induction of MHC class I [7]: Yes
- Induction of MHC class II [7]: Yes
- Induction of apoptosis [7]: No
- Induction of autophagy [7]: Yes
- Induction of MHC class I [8]: No
- Induction of MHC class II [8]: Yes
- Induction of apoptosis [8]: Yes
- Induction of autophagy [8]: Yes
- cases with MHC class II induction greater than two fold [9]: 70%
- induction of autophagic and apoptotic cell populations ([1]; 1000 IU/mL IFN-gamma, 72 hours): induces both autophagic and apoptotic cell populations
